Experimental data: paper PMC2212760 (The Journal of Experimental Medicine, 2005)

Columns and labels:
[1] = target: T1, FPRL2 (Homo sapiens, UniProt P25089); settings: not depicted
T1 sequence (P25089 1-353): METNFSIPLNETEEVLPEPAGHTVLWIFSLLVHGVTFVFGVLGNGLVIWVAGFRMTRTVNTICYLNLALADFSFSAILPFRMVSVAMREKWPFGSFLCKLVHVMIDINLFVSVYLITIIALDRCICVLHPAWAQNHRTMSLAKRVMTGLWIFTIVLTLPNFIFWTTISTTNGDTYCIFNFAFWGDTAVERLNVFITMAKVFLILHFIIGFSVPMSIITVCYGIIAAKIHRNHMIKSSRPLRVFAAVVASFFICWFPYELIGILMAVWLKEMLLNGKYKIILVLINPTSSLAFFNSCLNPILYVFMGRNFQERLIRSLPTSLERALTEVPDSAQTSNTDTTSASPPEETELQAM

[2] = target: T1, FPRL2; experiment: aequorin-based functional assay on FPRL2-expressing CHO-K1 cells; settings: aequorin assay (FMLP, SHAAG: aequorin and cAMP assays)

activity in FPRL2 binding assay [1]: totally inactive
activity on FPRL2 [2]: totally inactive
Sequence: NSLFGSVETWPWQVL [F2L[7–21]]
